Test results from PMC9599917, “Reshaping the Binding Pocket of the Neurotransmitter:Solute Symporter (NSS) Family Transporter SLC6A14 (ATB^0,+) Selectively Reduces Access for Cationic Amino Acids and Derivatives” (Biomolecules, 2022).
Positions count from the first letter of the chain named. Names and notes keep the numbering of the source.

B1: SLC6A14 (ATB0,+) (Homo sapiens) (protein)
chain: MDKLKCPSFFKCREKEKVSASSENFHVGENDENQDRGNWSKKSDYLLSMIGYAVGLGNVWRFPYLTYSNGGGAFLIPYAIMLALAGLPLFFLECSLGQFASLGPVSVWRILPLFQGVGITMVLISIFVTIYYNVIIAYSLYYMFASFQSELPWKNCSSWSDKNCSRSPIVTHCNVSTVNKGIQEIIQMNKSWVDINNFTCINGSEIYQPGQLPSEQYWNKVALQRSSGMNETGVIVWYLALCLLLAWLIVGAALFKGIKSSGKVVYFTALFPYVVLLILLVRGATLEGASKGISYYIGAQSNFTKLKEAEVWKDAATQIFYSLSVAWGGLVALSSYNKFKNNCFSDAIVVCLTNCLTSVFAGFAIFSILGHMAHISGKEVSQVVKSGFDLAFIAYPEALAQLPGGPFWSILFFFMLLTLGLDSQFASIETITTTIQDLFPKVMKKMRVPITLGCCLVLFLLGLVCVTQAGIYWVHLIDHFCAGWGILIAAILELVGIIWIYGGNRFIEDTEMMIGAKRWIFWLWWRACWFVITPILLIAIFIWSLVQFHRPNYGAIPYPDWGVALGWCMIVFCIIWIPIMAIIKIIQAKGNIFQRLISCCRPASNWGPYLEQHRGERYKDMVDPKKEADHEIPTVSGSRKPE
notes: human SLC6A14 expressed in Xenopus laevis oocytes
B2: SLC6A14 (ATB0,+) (Homo sapiens; V128F) (protein)
chain: B1 chain with V128F
notes: human SLC6A14-V128F expressed in Xenopus laevis oocytes
B3: SLC6A14 (ATB0,+) (Homo sapiens; V128I) (protein)
chain: B1 chain with V128I
notes: human SLC6A14-V128I expressed in Xenopus laevis oocytes

Key:
Type in all cases: cell-based, Homo sapiens
[1] = substrate: N=C(N)NCCC[C@H](N)C(=O)O; experiment: two-electrode voltage clamp in oocytes (Km); competition with [3H]serine uptake; conditions: Na+ and Cl- substrate binding pocket, competes with serine; lost in V128F
[2] = substrate: N[C@@H](CO)C(=O)O; experiment: two-electrode voltage clamp in oocytes (Km); radiolabelled uptake; conditions: Na+ and Cl-
[3] = substrate: N[C@@H](CO)C(=O)O; experiment: as above; conditions: Na+ and Cl-; remark: listed apart in the source
Text: two-electrode voltage clamp in oocytes (Km); radiolabelled uptake on SLC6A14 (ATB0,+) | In SLC6A14-V128I, the affinity for serine increased by five-fold

[4] = substrate: N=C(N)NCCC[C@H](N)C(=O)O; experiment: two-electrode voltage clamp in oocytes (Km); conditions: Na+ and Cl-

Protein	Km [1] [µM]	Km [2] [µM]	Km [3] [µM]	Km [4] [µM]
B1	91 ± 11	106 ± 5		
B2		142 ± 11		
B3			20 ± 3	60 ± 8
